In patent US20260374828:

Target: Keap1 Kelch domain, Q14145
Experiment: other TR-FRET
Conditions: modification not given

Chain of Keap1 Kelch domain, Q14145 (Q14145 whole entry, the tested form may be a part): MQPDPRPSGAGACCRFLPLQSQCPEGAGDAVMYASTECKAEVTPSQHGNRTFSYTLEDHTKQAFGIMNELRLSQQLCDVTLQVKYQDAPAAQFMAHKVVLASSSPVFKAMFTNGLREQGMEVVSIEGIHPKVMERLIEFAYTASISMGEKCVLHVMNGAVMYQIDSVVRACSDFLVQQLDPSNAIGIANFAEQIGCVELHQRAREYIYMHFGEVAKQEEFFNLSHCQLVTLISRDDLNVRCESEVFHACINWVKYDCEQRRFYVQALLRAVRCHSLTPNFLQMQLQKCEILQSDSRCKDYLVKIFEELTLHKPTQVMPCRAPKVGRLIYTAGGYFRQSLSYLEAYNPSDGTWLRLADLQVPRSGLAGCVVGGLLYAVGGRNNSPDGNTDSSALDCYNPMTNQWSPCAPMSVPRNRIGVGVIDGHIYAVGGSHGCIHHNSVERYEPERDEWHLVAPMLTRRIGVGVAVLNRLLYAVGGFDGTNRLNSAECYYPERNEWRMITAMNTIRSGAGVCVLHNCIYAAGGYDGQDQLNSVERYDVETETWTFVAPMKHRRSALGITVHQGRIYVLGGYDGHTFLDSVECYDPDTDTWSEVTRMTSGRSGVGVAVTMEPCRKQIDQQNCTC

Row | IC50 | Binder
1 | 38.8 nM | RRDELEPLTGFRR [Peptide 1-3]
2 | 40.4 nM | DELEPLTGFRRR [Peptide 1-8]
3 | 14.7 nM | RDELEPLTGFRRR [Peptide 1-9]
4 | 6.2 nM | DELEPLTGFRR [Peptide 1-7]
